Laboratory results taken from US12077763B2, “RNA-based control of powdery mildew” (Greenlight Biosciences, Inc., priority 2021, dated 2024).

B1: GS3336: sprayed dsRNA for which activity had been shown by leaf assay; presumably listed in Table 1B (nucleic acid)
sense: AAUGAUGUAAGCUCCAUGGGAAUUCAUAACCUGAGUGAGCAUCAAUAGCUUGGAAUAGUCGACAGAUAAUCCAACAAUACAUCGUAACUAAGUGAAGAUUGCCAGUUAUCAGACACCAUACAGUUGGCAUUAAGACUGUUCCUGCGCCAAGAACCAUUGUUUCUAUUGGUGAAGCAUAUUCAGCUGCUAGUCCGAAGGGUGCAGAGUAAUGAUGAUGUAUUUUAUGAAUAUGUUUGUAGAAAGGACCCCAAUGAAAUAAUCGAUGCAUCCAAUAAUGCCACGUAUCUUCCAACACGAAAAAGAAAGCAAUCUGAAGACACAUAGUUUUUAAUGAUGGAAAUGGGACACCAACAUCCAUACCACAAGCCUUUGUCAAUGGAUGAAAAAGCCAAAUUUGA
antisense: UCAAAUUUGGCUUUUUCAUCCAUUGACAAAGGCUUGUGGUAUGGAUGUUGGUGUCCCAUUUCCAUCAUUAAAAACUAUGUGUCUUCAGAUUGCUUUCUUUUUCGUGUUGGAAGAUACGUGGCAUUAUUGGAUGCAUCGAUUAUUUCAUUGGGGUCCUUUCUACAAACAUAUUCAUAAAAUACAUCAUCAUUACUCUGCACCCUUCGGACUAGCAGCUGAAUAUGCUUCACCAAUAGAAACAAUGGUUCUUGGCGCAGGAACAGUCUUAAUGCCAACUGUAUGGUGUCUGAUAACUGGCAAUCUUCACUUAGUUACGAUGUAUUGUUGGAUUAUCUGUCGACUAUUCCAAGCUAUUGAUGCUCACUCAGGUUAUGAAUUCCCAUGGAGCUUACAUCAUU
B2: GS1879: dsRNA trigger SEQ ID NO 142; gene target Chaperone-dependent E3 ubiquitin protein ligase (nucleic acid)
chain: CTGAATTTCTGAGTTCCGCTATCTTTTTATCTCTTCTTTCCTCAAGTCCGTATTGAAGTTCGTGAGATAATTTACTTCGATTCATCTCTCTTTTACTTTCTTGTGCCTCCCATCCCATTTTTTTACATTTCATCACTAACTCAGTTATTGGCTCTATACTGTTAGCCCCTTTTGTTCCTGCATACATCTCTTCCATACAAAATTTTCGCGCAGTCTTTGCAGATTGAAATGCCTCATCGTAATAATTTAGCGCCAGTTGTGCTTGGGCCAGTTGGAAATATGCTTTCATATTTGATGGGAGGAGACGTAAAGCGCATTGGGCATCTTCAATTACACGATGATGAAGAGATAATTTAAGAAGTACCATTGCACGATTTGTATAAAGTACTGGATTTTGGGGATCACAATTGATCGCTTTTGTGTAAAACATTTCAGCACGCGTATAATCACCAGACTTAAAATATTTATTTC
B3: GS1875: dsRNA trigger SEQ ID NO 168; gene target Mitochondrial RNA-splicing protein MRS3 (nucleic acid)
chain: AAAGCTCCAGCTGAGCAATGAGTAAGTGGATCGTAAGCCTTTGATGGGTTCAGAAATGTAGATACAGATTCGTATGCGAGAAGTTGAAGTGCTGTAAATGGTACAGTCATGGAAAGAGTAGTTGGATACGAGATATAGAAGGCTGTGATGCCTTCAGTGCGATAGATATAGCGGGCACAATCACTCAGTGATCTATAAATTTTGCGAGAGTTATGCATTTGCATTCTTTGCTTTATTACATCAAATGGGTTCATTAAAGCATCACTTGCAATTGTTGCGCATGCCCCACTTGTAATGCGCATGCCCCACTTGTAACTATGTAGCTTCAGTAAGTGCTCAATATCAAGGATAAATTGGCGATGTAGTCATATATGTCTGATTCCTTAATCAAAATTCTTAATACAGACCTGCTGCAATAGGATGATGAGCTCCTGTTTGATTACCTCCCATGAGATGTTTGACAGCTTCATAGGTTGCAAAATA
B4: GS1885: dsRNA trigger SEQ ID NO 213; gene target ribosomal processing RNA binding nucleolar protein (nucleic acid)
chain: TACGGATCGATAGACGGGTGAGTGAAAGATGAAGTGCAGGATTTTTCTCTATAAGTTTCTTACGTTGTAGCGCCGAAGCTTCTCTAAGTTTAATCTCTGATGGAGATAAAACGTTATATATAGGCGTACCAACAGCAATTGTCCCCTCTTTAAGTAGATATAACTTTCGCTTATCTTTGTCTCGGTCAGTGCGGAAGTTTGTCCCAGCTTCTGTAAGTTTTACAGCTTTTTCTCGATTAACTGCTCTTGACACTTGAAGTACGCGACCTTCTATTGTGTATAAGCCATTCTTATCAGCAGTTTCATCCTCTAAAATAGAGTTTTTAGCTTTAACAGCGTTTGCACCACTTTTGAAGGTACGAGGTGCACCATGGTAACAAGAGTCCGCATCTTCTTGTCTATAGAAGCAAACAAAGCCAGTGCCTTTAGGTCGACCAGTATTATTGTCTATGACCA

How the values were obtained:
E. necator = experiment: Leaf disc assay, dry inoculum (settling tower), decrease in disease severity / hyphal growth (Example 2); conditions: decrease in disease severity (hyphal growth) relative to untreated control, value ± SE; for % decrease =/− SE TP1: time point 1 (untreated control hyphal growth ≥50%); for % decrease =/− SE TP2: time point 2
[1] = system: GS1885, GS3336, GS1875, GS1879 transcripts; experiment: Gene specific qRT-PCR of GS1885, GS3336, GS1875, GS1879 transcripts in leaf discs (Example 3); format: in vivo, E. necator; conditions: six-days post inoculation, FIG. 4
Experimental: FIG. 4. Gene specific qRT-PCR analysis of GS1885, GS3336, GS1875, GS1879 transcripts at 6-dpi in leaf discs. The 2-ΔΔCT method was used to analyze the relative changes in gene expression. Gene expression was normalized to the untreated control. GS145 (a non-target dsRNA sequence) was also included as control. Asterisks denote significant differences compared to untreated control (UTC). Statistical comparisons between treatments were performed with ANOVA, followed by Welch's analysis.
qRT-PCR was performed to validate the effect of exogenous dsRNA on the expression of selected targeted genes for which activity of dsRNA had been shown by leaf assay (as described in Example 2). Samples were treated with dsRNA, inoculated after 24 hours and six leaf discs per treatment were collected at six-days post inoculation (dpi) for further analysis.

Row | Molecule | % decrease =/− SE TP1 (E. necator) [%] | % decrease =/− SE TP2 (E. necator) [%] | gene silencing in E. necator by sprayed dsRNA / gene expression levels vs untreated control [1]
1 | B1 | 72 ± 2 | 57 ± 4 | Induced Gene Silencing
2 | B2 | 49 ± 5 | 41 ± 7 | Induced Gene Silencing
3 | B3 | 55 ± 4 | 41 ± 5 | Induced Gene Silencing
4 | B4 | 67 ± 4 | 58 ± 5 | Induced Gene Silencing
